Results: the supplement of paper PMC9170038

Test system: MS2 coat protein
Assay: apparent KD of MS2 coat protein; designed switch direction (-1 OFF switch, 1 ON switch): -1; higher = weaker reporter binding
Outline: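 The reported apparent KD is a per-design median over clusters, from curve fits of normalised cluster fluorescence. Protein titrations used SNAP-549-labelled MS2 coat protein, doubled from 0.7 or 1.5 nM to 3 µM, in Tris-HCl pH 7.5 buffer with KCl, MgCl2, BSA, DTT, tRNA and Tween-20, with no input, 200 uM small-molecule ligand, or an oligonucleotide input. The RNA switches were transcribed on Illumina chips by stalled E. coli RNA polymerase.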

[1] = Eterna round: R95, input ligand: microRNA oligo, concentration not stated
[2] = input ligand: microRNA oligo, concentration not stated
[3] = Eterna round: R95, input ligand: FMN 200 uM
[4] = Eterna round: R95, input ligand: none

Row | Sequence | apparent KD of MS2 coat protein (input ligand: FMN 200 uM) | apparent KD of MS2 coat protein (input ligand: none) | apparent KD of MS2 coat protein [1] | also measured
1 | GUGCCGCGAGGAUAUACAGACGGGUCCAGUGCGUGUCUCGGACUUGAGGAUCACCCAAGUAGAAGGCGUCUCAG [salish99_ex2_r4_614] (Eterna round: R97, puzzle: Exclusion 2) | 16.7 nM | 31 nM | – | –
2 | GUGGCACAUGAGGAUCACCCAUGUCAGGAUAUCGCGUGUUUUUUUUCGGCCGCGCGCGCGAGAAGGGACGUCUU (puzzle: Exclusion 1) | – | – | 22.8 nM | –
3 | GUGGGCUUUUAGGUUCUUGACAUGAGGAUCACCCAUGUGCUUGUCUUGCUGGCUGGCGGGUCGUCGGUCGGGCUUGU (Eterna round: R97, puzzle: Sensor, turn-off variant 1) | 559 nM | 646 nM | – | –
4 | GUGGGUUACAUGAGGAUCACCCAUGUAUAGUGGGAAAAGAUAUAGGAUAUAAUAUAAAAAUUAUAUUAGAAGGAUAGAGACUAG [AK ExNG3-1.1] (Eterna round: R96, puzzle: Exclusion NG 3) | 727 nM | 896 nM | – | apparent KD of MS2 coat protein [2]: 260 nM
5 | GUGGGUUACAUGAGGAUCACCCAUGUAUAGUGGGAAGAGAUAUAGGAUAUAAUGUAAAAAUUAUAUUAGAAGGAUAGAGACUAG [AK ExNG3-1.3] (Eterna round: R96, puzzle: Exclusion NG 3) | 344 nM | 553 nM | – | apparent KD of MS2 coat protein [2]: 135 nM
6 | GUGGUCCGAGGAUAUAUUAUGUGAUACAUGAGGAUCACCCAUGUUAUAUAAUGGAUGUUAGUAGAAGGCGGACUAC [Mat - Exclusion 5 - JL mod - D83] (puzzle: Exclusion 5) | – | – | 56 nM | apparent KD of MS2 coat protein [3]: 107 nM; apparent KD of MS2 coat protein [4]: 49.1 nM
7 | GUGUAACAUGAGGAUCACCCAUGUCAGGAUAUCCGCUUUAACUAAAUAAAUAAAUAGUGGAGAAGGGACAGCGC [-13.9, -13.37 kcal, 36% A] (Eterna round: R97, puzzle: Exclusion 1) | 55.7 nM | 46.8 nM | – | –
8 | GUGUACAGAGGAUAUACACGAAUCUAGCGAAGCUAGGUUUGACAUGAGGAUCACCCAUGUAGAAGGCUGUACAC [Dot plot directed A detuned for Vienna 1] (puzzle: Exclusion 2) | – | – | 16.7 nM | –
9 | GUGUACAGAGGAUAUAUAUGAGCUAGGAAACUAGCAAACUCACAUGAGGAUCACCCAUGUAGAAGGCUGUACAC [Ex2: 722] (Eterna round: R96, puzzle: Exclusion 2) | 220 nM | 26.9 nM | – | apparent KD of MS2 coat protein [2]: 22.4 nM
10 | GUGUACAGAGGAUAUAUAUGAGCUAGGAAACUAGCAAGAUCACAUGAGGAUCACCCAUGUAGAAGGCUGUACAC [Ex2: 735] (Eterna round: R96, puzzle: Exclusion 2) | – | – | – | apparent KD of MS2 coat protein [2]: 102 nM
11 | GUGUAGACAGGAUAUGCUUUGAGCAUAUGAGAGUAUGCUCGACAUGAGGAUCACCCAUGUAGAAGGGUCUACAC [LRO-Excl2-02] (puzzle: Exclusion 2) | – | – | 12.9 nM | –
12 | GUGUAGAUAGGAUAUGCUGGAAUCUAGCGAAGCUAGGUUCCACAUGAGGAUCACCCAUGUAGAAGGGUCUACAC [Dot plot directed A v11] (puzzle: Exclusion 2) | – | – | 127 nM | –
13 | GUGUAGCUAGGAUAUACAUGAGGAUCACCCAUGUGAAUAAGAUAGAAUAAGAUAAAGUGUAGAAGGAGUAGUGU [Excluse me!!! 15 - Jieux - Exclusion 3] (puzzle: Exclusion 3) | – | – | 18.2 nM | apparent KD of MS2 coat protein [3]: 18.2 nM; apparent KD of MS2 coat protein [4]: 18.7 nM
14 | GUGUAGUCAGGAUAUACAUAGGAAGAGAAGAGAAGAGAAGGACAUGAGGAUCACCCAUGUAGAAGGGACAGUGU [Excluse me!! 5 - Jieux - Exclusion 2] (puzzle: Exclusion 2) | – | – | 43.6 nM | –
15 | GUGUAGUCAGGAUAUACAUAGGAAGAGAAGAGAAGAUAAGUACAUGAGGAUCACCCAUGUAGAAGGGACAGUGU [Excluse me!! 7 - Jieux - Exclusion 2] (puzzle: Exclusion 2) | – | – | 32.1 nM | –
16 | GUUAACGAUCAGGAUAUAUCAAAUCAUAGCUUGAUAGAAGGGAUCACAUGAGGAUCACCCAUGUGAUCUUCUUU [jl-ex6-4.14 ViennaUCT mod] (Eterna round: R97, puzzle: Exclusion 6) | 15.3 nM | 11.7 nM | – | –
17 | GUUAAGGUAGGAUAUACGAUAAUAUAGGGUAGAUAUAUAACACAUGAGGAUCACCCAUGUAGAAGGACCAAUUG [Mat - Exclusion 2 - Mod of my Tesla design - D53] (puzzle: Exclusion 2) | – | – | 28.5 nM | –
18 | GUUACACAUGAGGAUCACCCAUGUGAGGAUAUGGAUUCGUUAGAAGUAGAAGAUGGAUCCAGAAGGCGCGUGAG [JR_Ex1_Sub079] (Eterna round: R97, puzzle: Exclusion 1) | 160 nM | 62.7 nM | – | –

Row | Sequence | apparent KD of MS2 coat protein (input ligand: FMN 200 uM) | apparent KD of MS2 coat protein (input ligand: none) | apparent KD of MS2 coat protein [1] | also measured
19 | GUUAUGCAGCAGGAUAUCGAUCCGCGGUAUGAUCGAGAAGGGCUGACAUGAGGAUCACCCAUGUGCGUCCUAGG [jl-ex6-4.46 ViennaUCT mod] (Eterna round: R97, puzzle: Exclusion 6) | 170 nM | 36.6 nM | – | –
20 | GUUGAUGUAGGAUAUACAUGAGGAUCACCCAUGUUGGUGCCCUAACCUAUUGGUGUACGUAGAAGGGCGGACUC [Eternabot (L2) Solution 96] (Eterna round: R97, puzzle: Exclusion 3) | 103 nM | 95.2 nM | – | –
21 | GUUGGUAAGUCAGGAUAUCCCUGUAAUGGCAGCGGAGAAGGGACAUGAGGAUCACCCAUGUGAACCUCCGGCGGAUAAACCCGC [Ancelave] (Eterna round: R96, puzzle: Exclusion NG 1) | 111 nM | 23.6 nM | – | apparent KD of MS2 coat protein [2]: 29.5 nM
22 | GUUGUUUAUGUAGGAUAUGCAAGGCGAACCUAAGCAGAAGGACAUGAGGAUCACCCAUGUAUUGCGGUCUGCGUUCAGAUCGCU [salish99_ExNG1_r4_014] (Eterna round: R96, puzzle: Exclusion NG 1) | 56.8 nM | 20.1 nM | – | apparent KD of MS2 coat protein [2]: 16.3 nM
23 | GUUUGACAUGAGGAUCACCCAUGUAAGGAUAUACGAGUAGAUGAUAGAUAGAUAGUAUGUAGAAGGUACGUGUU [EX1 #61] (Eterna round: R97, puzzle: Exclusion 1) | 74.3 nM | 92.8 nM | – | –
24 | GUUUGCGCAGGAUAUACAUGAGGAUCACCCAUGUGAGAGAAAUAAGUGAGGAAGAAAAGUAGAAGGGCGUGACG [Mat - Exclusion 3 - Mod of Salish D71] (puzzle: Exclusion 3) | – | – | 34 nM | apparent KD of MS2 coat protein [3]: 171 nM; apparent KD of MS2 coat protein [4]: 42.8 nM
25 | GUUUUAUAUGAAGGAUAUACUUAACAUGAGGAUCACCCAUGUGGUGUUGUGAGUGAGUGAGUUUAGUAGAAGGUCAAUUCUUUU [JMF's solution 99] (Eterna round: R96, puzzle: Exclusion NG 2) | 622 nM | 408 nM | – | apparent KD of MS2 coat protein [2]: 593 nM
26 | GUUUUCAGACGGAGAUCCUACAUGAGGAUCACCCAUGUCUCUCAAGCUAAUUGCUCGUCUUAUUCUCCUCUGUUCUC [Elimod 39 - Jieux - Sensor, turn-off variant 1] (Eterna round: R97, puzzle: Sensor, turn-off variant 1) | 35.6 nM | 41 nM | – | –
27 | GUUUUCAGACGGAGAUCCUACAUGAGGAUCACCCAUGUCUCUCUAGCUAAUUGCUCGUCUUAUUCUCCUCUGUUCUC [Elimod 38 - Jieux - Sensor, turn-off variant 1] (Eterna round: R97, puzzle: Sensor, turn-off variant 1) | 40 nM | 47.5 nM | – | –
28 | UAAAACCUAGGAUAUACAUGAGGAUCACCCAUGUUCGAAGGAGCCCAAGUGACUUCUAGUAGAAGGAGGGCGAA [Aratisedso] (puzzle: Exclusion 3) | – | – | 18.8 nM | –
29 | UAAAAGCUAGGAUAUAGAGACAGAAACUUGAGGAUCACCCAAGUGAGUCAAGCUAUGUCGCUAGAAGGAGCGAAAA [Qubetizaa] (Eterna round: R97, puzzle: Exclusion 5) | 278 nM | 32 nM | – | –
30 | UAAAAGUGAGGAUAUACAUUAAGGUAAGUCCGGAUGCGAAGACAUGAGGAUCACCCAUGUAGAAGGCACACAAA [Aredge] (puzzle: Exclusion 2) | – | – | 32.1 nM | –
31 | UAAACAAGCUAAAGAUCCUACAUGAGGAUCACCCAUGUGCUCGUCUUGUAACGUACUGUGACGAAAGUCACGGUACG [JL TOV1 3.10] (Eterna round: R97, puzzle: Sensor, turn-off variant 1) | 194 nM | 202 nM | – | –
32 | UAAAUUAUUGUAAGGAUAUCAGUCCCGAAAGGGACUGAGAAGGUACAUGAGGAUCACCCAUGUGAAAUAAGAAU [Mod of Zala 15 - Jieux - Brourd's Mod of Exclusion 4] (Eterna round: R97, puzzle: Brourd's mod of Exclusion 4) | 53.1 nM | 22.1 nM | – | –
33 | UAAAUUGCAAGCAGAUCCUACAUGAGGAUCACCCAUGUGCUCUGAAAUAACGCAGAAUUACUGCGAGCUCGUCUUAU [Winner reversed engineered 26] (Eterna round: R97, puzzle: Sensor, turn-off variant 1) | 80.9 nM | 94.3 nM | – | –
34 | UAAAUUGGGUAGGAUAUGUUUGUUUAAAGAGCCACAGAAGGACCCACAUGAGGAUCACCCAUGUAUCACCUAUG [Eternabot (L2) Solution 60] (Eterna round: R97, puzzle: Exclusion 6) | 33.6 nM | 27.1 nM | – | –
35 | UAACCACAUGAGGAUCACCCAUGUGAGGAUAUGUCCAUAUUCGGCAAAUCGGAUAUGGACAGAAGGCACACCGG [JR_Exclusion1_Sub010] (puzzle: Exclusion 1) | – | – | 40.7 nM | –
